Measurements as given in patent publication US11103562B2, “Composition comprising alkaline phosphatase for use in the treatment of arthritides” (AMRIF BV, priority 2017, dated 2021).
“Also recorded” adds a separate entry of the source.

Key:
[1] = rats; cited from earlier work
[2] = tested on: arthritic rats; test: Knee swelling in rats with mBSA antigen-induced arthritis; assay type: in vivo, rat
Method: (§1) Experiments were performed using a rat model for RA as published by Chandruputla et al. (BioMed Int, 2015) to show the effects of recombinant human alkaline phosphatase (hRESCAP) on RA. hRESCAP was compared with MTX used as a positive control. The antigen-induced rat model uses two subcutaneous immunizations with a mixture of methylated bovine serum albumin (mBSA), CFA (complete Freund's adjuvant antigen) and CBP (custom Bordetella pertussis antigen) and intra-articular injections of mBSA on one side knee and saline (negative control) on the counter knee. Immunohistochemical (IHC) analysis specifically focussed on infiltration with macrophages and knee swelling is followed over time after therapeutic treatment with MTX, or hRESCAP.
(§2) In the rat model, RA is induced in the right knee (RA knee), the contralateral left knee serves as a internal control (control knee). The model allows various options for therapeutic interventions, either before intra-articular injections or during boosts injections with mBSA. Two hours prior to AP administration, rats received a dose of levamisole (50 mg/kg, s.c.). For comparison, arthritic rats received treatment with methotrexate (1 mg/kg, i.p.).
(§3) All rats (except healthy) were immunized and arthritis was induced via 1× or 4× intra-articular (i.a) mBSA injections, 4 or 5 days apart in the arthritic (right) knee, the contralateral (left, non-arthritic) knee serving as control knee. For therapeutic interventions, AP (human recombinant placenta AP, TNO, Zeist, The Netherlands) was administered subcutaneously (s.c.) at a dose of 700 U/kg (≈200 μg), MTX (VU University Medical Centers' Pharmacy) was administered intra-peritoneal (i.p.) at two dosages: 0.3 mg/kg (low dose) and 1.0 mg/kg (high dose). The rats were divided in 8 groups, based on different treatments and treatment schedules. In a prophylactic setting, two rats received AP twice prior to intra-articular (i.a.) arthritis induction and four rats received AP twice prior to intra-articular and 4× PBS in between i.a. injections. In the treatment groups, arthritic rats were administered AP twice or 4× after arthritis induction, either as standalone therapy or in combination with low or high dose MTX. Control rats received 500 μL of PBS (i.p.). […] At the end of study, all rats were sacrificed and tissues were excised for further processing and various analyses.

[3] = tested on: macrophages; test: [^18F]fluoro-PEG-folate macrophage PET-CT imaging of arthritic knees; assay type: in vivo; settings: PET scan at day 40; one rat per group
Source text: The macrophage PET tracer [^18F]fluoro-PEG-folate was synthesized, with a radiochemical purity of >96.5% and mean specific activity of 27.6±3.5 GBq/μmol. Untreated and 4× AP-treated arthritic were anesthetized using inhalation anaesthetics (isoflurane 2-2.5% and oxygen […]). The tail vein was cannulated with a poly-urethane 3 French cannula (0.7 mm×19 mm, BD Angiocath, Breda, The Netherlands). During PET-CT (Mediso nanoPET-CT, Budapest, Hungary) rats were place in an integrated heating bed (˜35° C.) while monitoring respiratory function. Computed tomography (CT) scan was performed for 5 min, followed by tracer administration (10.7±1.8 MBq) at the start of a dynamic PET scan of 60 min. PET data were normalized, and corrected for scatter, randoms, attenuation, decay and dead time. The list mode PET data were rebinned in 19 successive frames (4×5, 4×10, 2×30, 3×60, 2×300, 3×600 and 1×900 s), which were reconstructed using an iterative 3D Poisson ordered-subsets expectation-maximization algorithm with 4 iterations and 6 subsets. […] The CT and PET images were superimposed for drawing the regions of interest (ROI). […] TACs were expressed as standardized uptake values (SUV), i.e. mean ROI radioactivity concentration normalized to injected dose and body weight.

[4] = tested on: ED1+ and ED2+ synovial macrophages; test: Synovial macrophage infiltration (ED1/ED2 immunohistochemistry) in knees of rats with mBSA antigen-induced arthritis; assay type: in vivo, rat
Method: as §1, §2
At the end of the experiment, rats were sacrificed and knees were decalcified and processed for IHC analysis of synovial macrophage infiltration, including 2 rat macrophage antibodies; ED1 (homolog of human CD68) and ED2 (homolog of human CD163, a proposed marker for human M2 anti-inflammatory macrophages). IHC analysis of ED1 and ED2 macrophages was performed in multiple quadrants of synovial tissue, as described by Chandruputla et al (BioMed Int, 2015). Macrophage counting included synovial lining layer (SL 1-10) and synovial sublining layers (SL 1-20).
as §3
The arthritic and contralateral knees from all rats were dissected in toto and fixed for 7 days at 4° C. in 10% freshly made paraformaldehyde in PBS with 2% sucrose (pH=7.3) prior to decalcification in osteosoft (101728, Merck, Germany) for ˜2.5 weeks at room temperature. Thereafter, knees were embedded in paraffin. Sections of 5 μm were cut through the centre of the joint in longitudinal direction and stained with haematoxylin and eosin (HE) to assess the degree of inflammation in synovial tissue. Liver and spleen sections from all rats were dissected and fixed in 4% paraformaldehyde for 24 h before embedding in paraffin. Sections of 5 μm were cut and stained initially with HE and then for macrophages Staining for macrophages with ED1 (homologous to human CD68), and ED2 (homologous to human CD163, a marker for M2 anti-inflammatory macrophages), or isotype control antibody was performed. Images were captured using a Leica 4000B microscope and Leica digital camera DC500 (Microsystems B. V. Rijswijk, The Netherlands). […]

[5] = 2× AP administration followed by 4× PBS, p<0.01
[6] = prophylactic AP treatment, 2× AP before intra-articular antigen injection
[7] = prophylactic: 2× AP (700 U/kg) prior to intra-articular mBSA injection, p<0.01

B1: AP: human recombinant placenta alkaline phosphatase (hRESCAP; TNO, Zeist), an ectophosphatase (protein, UniProt P05187 23-506, looked up)
Alkaline phosphatase, …: IIPVEEENPDFWNREAAEALGAAKKLQPAQTAAKNLIIFLGDGMGVSTVTAARILKGQKKDKLGPEIPLAMDRFPYVALSKTYNVDKHVPDSGATATAYLCGVKGNFQTIGLSAAARFNQCNTTRGNEVISVMNRAKKAGKSVGVVTTTRVQHASPAGTYAHTVNRNWYSDADVPASARQEGCQDIATQLISNMDIDVILGGGRKYMFRMGTPDPEYPDDYSQGGTRLDGKNLVQEWLAKRQGARYVWNRTELMQASLDPSVTHLMGLFEPGDMKYEIHRDSTLDPSLMEMTEAALRLLSRNPRGFFLFVEGGRIDHGHHESRAYRALTETIMFDDAIERAGQLTSEEDTLSLVTADHSHVFSFGGYPLRGSSIFGLAPGKARDRKAYTVLLYGNGPGYVLKDGARPDVTESESGSPEYRQQSAVPLDEETHAGEDVAVFARGPQAHLVHGVQEQTFIAHVMAFAACLEPYTACDLAPPAGTTD
half life time [1]: ≈ 3 days | swelling of the mBSA-injected right knee ([2]; prophylactic and therapeutic AP treatment or MTX treatment, versus positive control): Reduced swelling | swelling of the non-treated left knee ([2]; versus positive control treatment): swelling is reduced | increased [^18F]fluoro-PEG-folate uptake (SUV) in arthritic knee of the untreated rat compared to the 4× AP-treated rat [3]: 1.5 fold | reduction of synovial ED1+ macrophage infiltration in arthritic knees [4, 5]: 2 fold | reduction of synovial ED2+ macrophage infiltration in arthritic knees [4, 5]: 3 fold | ED1+ synovial macrophage infiltration in arthritic knee (in words) [4, 6]: mild infiltration; also recorded: very much reduced; also recorded: markedly reduced infiltration | ED2+ synovial macrophages in arthritic knee (in words) [4, 6]: do not show this activity; also recorded: markedly reduced infiltration | lower quantification of ED1+ macrophages in arthritic knees compared to untreated rats (1× i.a.) [4, 7]: 4 fold | lower quantification of ED2+ macrophages in arthritic knees compared to untreated rats (1× i.a.) [4, 7]: 8 fold | further reduction of ED1+ and ED2+ macrophage counts in arthritic knees ([4]; therapeutic setting, 4× AP administration): ~8 fold | ED2+ synovial macrophages in arthritic knee (in words) ([4]; therapeutic treatment, 4× AP after first i.a. and in between boosts): much reduced | ED1+ synovial macrophage infiltration in arthritic knee (in words) ([4]; therapeutic treatment, 4× after first i.a. and in between boosts, AP 700 U/kg, MTX 1 mg/kg): reduces ED1+ infiltration; also recorded: very much reduced
